Sequences and labels used below:
B1: T7 tagged FoxM1 wild type (WT) [not stated] / Retinoblastoma protein (Rb), endogenous [human (endogenous in MCF7 and MDA-MB-453)] (parent)
chain 1: MKTSPRRPLILKRRRLPLPVQNAPSETSEEEPKRSPAQQESNQAEASKEVAESNSCKFPAGIKIINHPTMPNTQVVAIPNNANIHSIITALTAKGKESGSSGPNKFILISCGGAPTQPPGLRPQTQTSYDAKRTEVTLETLGPKPAARDVNLPRPPGALCEQKRETCADGEAAGCTINNSLSNIQWLRKMSSDGLGSRSIKQEMEEKENCHLEQRQVKVEEPSRPSASWQNSVSERPPYSYMAMIQFAINSTERKRMTLKDIYTWIEDHFPYFKHIAKPGWKNSIRHNLSLHDMFVRETSANGKVSFWTIHPSANRYLTLDQVFKQQKRPNPELRRNMTIKTELPLGARRKMKPLLPRVSSYLVPIQFPVNQSLVLQPSVKVPLPLAASLMSSELARHSKRVRIAPKVLLAEEGIAPLSSAGPGKEEKLLFGEGFSPLLPVQTIKEEEIQPGEEMPHLARPIKVESPPLEEWPSPAPSFKEESSHSWEDSSQSPTPRPKKSYSGLRSPTRCVSEMLVIQHRERRERSRSRRKQHLLPPCVDEPELLFSEGPSTSRWAAELPFPADSSDPASQLSYSQEVGGPFKTPIKETLPISSTPSKSVLPRTPESWRLTPPAKVGGLDFSPVQTSQGASDPLPDPLGLMDLSTTPLQSAPPLESPQRLLSSEPLDLISVPFGNSSPSDIDVPKPGSPEPQVSGLAANRSLTEGLVLDTMNDSLSKILLDISFPGLDEDPLGPDNINWSQFIPELQ
chain 2: MPPKTPRKTAATAAAAAAEPPAPPPPPPPEEDPEQDSGPEDLPLVRLEFEETEEPDFTALCQKLKIPDHVRERAWLTWEKVSSVDGVLGGYIQKKKELWGICIFIAAVDLDEMSFTFTELQKNIEISVHKFFNLLKEIDTSTKVDNAMSRLLKKYDVLFALFSKLERTCELIYLTQPSSSISTEINSALVLKVSWITFLLAKGEVLQMEDDLVISFQLMLCVLDYFIKLSPPMLLKEPYKTAVIPINGSPRTPRRGQNRSARIAKQLENDTRIIEVLCKEHECNIDEVKNVYFKNFIPFMNSLGLVTSNGLPEVENLSKRYEEIYLKNKDLDARLFLDHDKTLQTDSIDSFETQRTPRKSNLDEEVNVIPPHTPVRTVMNTIQQLMMILNSASDQPSENLISYFNNCTVNPKESILKRVKDIGYIFKEKFAKAVGQGCVEIGSQRYKLGVRLYYRVMESMLKSEEERLSIQNFSKLLNDNIFHMSLLACALEVVMATYSRSTSQNLDSGTDLSFPWILNVLNLKAFDFYKVIESFIKAEGNLTREMIKHLERCEHRIMESLAWLSDSPLFDLIKQSKDREGPTDHLESACPLNLPLQNNHTAADMYLSPVRSPKKKGSTTRVNSTANAETQATSAFQTQKPLKSTSLSLFYKKVYRLAYLRLNTLCERLLSEHPELEHIIWTLFQHTLQNEYELMRDRHLDQIMMCSMYGICKVKNIDLKFKIIVTAYKDLPHAVQETFKRVLIKEEEYDSIIVFYNSVFMQRLKTNILQYASTRPPTLSPIPHIPRSPYKFPSSPLRIPGGNIYISPLKSPYKISEGLPTPTKMTPRSRILVSIGESFGTSEKFQKINQMVCNSDRVLKRSAEGSNPPKPLKKLRFDIEGSDEADGSKHLPGESKFQQKLAEMTSTRTRMQKQKMNDSMDTSNKEEK
B2: T7 tagged FoxM1 wild type (WT) [not stated] / DNMT3b, endogenous [human (endogenous in MCF7 and MDA-MB-453)] (parent)
chain 1: B1 chain 1
chain 2: not shown

This is an account of results in publication PMC5384083.

Variants of B1 are the subject of one assay. Kind of assay: co-immunoprecipitation (IP T7, western blot Rb), band intensity given. Particulars: with Retinoblastoma protein (Rb), MDA-MB-453 cells, cell lysates (800 ug).
Turning to chain 1 T596A, the response was found to be 22.8.

In the case of chain 1 S715D S724D, the response was 0.09.

The variants in the next assay derive from B2. The assay is described as follows: co-immunoprecipitation (IP T7, western blot DNMT3b), band intensity given. Particulars: with DNMT3b, MDA-MB-453 cells. (In general: In western blotting, separated proteins are transferred to a membrane and probed.)
As to chain 1 S715D S724D, the response turned out to be 10.

In the case of chain 1 T596A, the response turned out to be 132.
